{
  "source": "paper PMC2788528",
  "molecular_target": "CEACAM3 WT-HA-CyPet, tyrosine-phosphorylated (coexpressed with v-Src) (UniProt P40198)",
  "sequence (P40198 35-252)": "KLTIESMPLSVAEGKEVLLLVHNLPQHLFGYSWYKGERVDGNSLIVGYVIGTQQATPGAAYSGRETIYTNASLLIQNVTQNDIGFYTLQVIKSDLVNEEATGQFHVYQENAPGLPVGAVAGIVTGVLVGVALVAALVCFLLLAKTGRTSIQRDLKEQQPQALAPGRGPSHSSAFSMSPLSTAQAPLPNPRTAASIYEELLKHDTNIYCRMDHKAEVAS",
  "assay": "FRET or BRET; flow cytometric FRET in intact cotransfected 293T cells (with or without v-Src); CyPet and YPet double-positive cells gated; FRET channel excitation 405 nm, emission 525/50 nm; LSR II",
  "data": [
    {"substance": "YPet-Hck-SH2 (SH2 domain of human Hck fused to YPet) (from UniProt P08631 144-241) (domain or fragment)", "values": [
      {"measurement": "fold increase in the mean fluorescence intensity in the FRET channel", "value": 4, "unit": "fold"}
    ]}
  ]
}
